This assay addresses IsdB Y165A, site-directed mutant of Staphylococcus aureus IsdB (Staphylococcus aureus, UniProt Q2FZF0 41-613, Y165A). Kind of assay: ELISA. Particulars: both partners purified.

B1: Human hemoglobin A (oxyhemoglobin) (complex)
chain 1: not shown
chain 2: not shown
As to B1, the Kd was 80 ± 11 µM.
